In US20120027722A1:

What was measured:
[1] = biological target: HCV E1E2 glycoproteins, genotype 1b (Con1) (Hepatitis C virus genotype 1b (Con1)) (UniProt Q9WMX2); assay: cell-based or functional assay
[2] = biological target: HCV E1E2 glycoproteins, genotype 2a (J6) (Hepatitis C virus genotype 2a (J6)); assay: cell-based or functional assay
Peptide D3 = conditions: remark: other sources report otherwise

HCV E1E2 glycoproteins, genotype 1b (Con1) (Hepatitis C virus genotype 1b (Con1)), sequence (Q9WMX2 192-383 limits assumed, chain 1 of 2): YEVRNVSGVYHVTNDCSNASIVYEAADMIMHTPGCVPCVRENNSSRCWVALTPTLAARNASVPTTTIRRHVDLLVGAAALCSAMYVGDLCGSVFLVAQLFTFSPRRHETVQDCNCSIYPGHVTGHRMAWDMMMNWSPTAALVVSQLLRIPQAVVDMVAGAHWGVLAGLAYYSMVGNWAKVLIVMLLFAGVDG
HCV E1E2 glycoproteins, genotype 1b (Con1) (Hepatitis C virus genotype 1b (Con1)), sequence (Q9WMX2 384-746 limits assumed, chain 2 of 2): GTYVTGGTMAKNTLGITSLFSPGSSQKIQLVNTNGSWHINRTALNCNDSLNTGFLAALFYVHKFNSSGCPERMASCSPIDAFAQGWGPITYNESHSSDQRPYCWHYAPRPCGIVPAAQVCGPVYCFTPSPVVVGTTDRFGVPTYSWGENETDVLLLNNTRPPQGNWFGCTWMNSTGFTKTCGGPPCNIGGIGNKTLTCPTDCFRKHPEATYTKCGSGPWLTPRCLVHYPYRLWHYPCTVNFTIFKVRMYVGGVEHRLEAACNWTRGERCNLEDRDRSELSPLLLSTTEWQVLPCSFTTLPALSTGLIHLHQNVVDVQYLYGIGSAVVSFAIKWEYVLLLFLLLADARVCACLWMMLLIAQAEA

Binder | EC50, neutralization of Con1 HCVpp entry (Huh-7.5, luciferase) [1] | EC50, neutralization of J6 HCVpp entry (Huh-7.5, luciferase) [2] | EC50 (read off the curve) (Peptide D3)
AP33 antibody (as used in Example 2) (antibody, V domains shown) VH: EVQLQESGPSLVKPSQTLSLTCSVTGDSITSGYWNWIRKFPGNKLEYMGYISYSGSTYYNLSLRSRISITRDTSKNQYYLQLNSVTTEDTATYYCALITTTTYAMDYWGQGTSVTVS VL: NIVLTQSPVSLAVSLGQRATISCRASESVDGYGNSFLHWFQQKPGQPPKLLIYLASNLNSGVPARFSGSGSRTDFTLTIDPVEADDAATYYCQQNNVDPWTFGGGTKLEIK | 1.42 µg/mL | 2.07 µg/mL | 
chimeric AP33 antibody (Vh/Vl) (antibody, V domains shown) VH: EVQLQESGPSLVKPSQTLSLTCSVTGDSITSGYWNWIRKFPGNKLEYMGYISYSGSTYYNLSLRSRISITRDTSKNQYYLQLNSVTTEDTATYYCALITTTTYAMDYWGQGTSVTVS VL: NIVLTQSPVSLAVSLGQRATISCRASESVDGYGNSFLHWFQQKPGQPPKLLIYLASNLNSGVPARFSGSGSRTDFTLTIDPVEADDAATYYCQQNNVDPWTFGGGTKLEIK |  |  | 0.02 µg/mL
